The values below come from patent US9145571B2, “Preparation method of human metabolites of simvastatin or lovastatin using bacterial cytochrome P450 and composition therefor” (priority 2009, dated 2015).

“And” between values parts separate entries of the source, which are not always exact repeats. Equal values may be shown once.

Series [1] has as its target triple CYP102A1 mutant of R47L/F87V/L188Q (Priestia megaterium, UniProt P14779, F88V/L189Q/R48L). Conditions: cited from earlier work.
Another series deals with T1, CYP102A1 mutant #16 (Priestia megaterium, UniProt P14779, E144G/E268V/F82I/F88V/L189Q/R48L).
T1 construct: made in house; host or cells: Escherichia coli DH5αF′-IQ (soluble cytosolic fraction)
T1 sequence (P14779 2-1049 R48L/F82I/F88V/E144G/L189Q/E268V): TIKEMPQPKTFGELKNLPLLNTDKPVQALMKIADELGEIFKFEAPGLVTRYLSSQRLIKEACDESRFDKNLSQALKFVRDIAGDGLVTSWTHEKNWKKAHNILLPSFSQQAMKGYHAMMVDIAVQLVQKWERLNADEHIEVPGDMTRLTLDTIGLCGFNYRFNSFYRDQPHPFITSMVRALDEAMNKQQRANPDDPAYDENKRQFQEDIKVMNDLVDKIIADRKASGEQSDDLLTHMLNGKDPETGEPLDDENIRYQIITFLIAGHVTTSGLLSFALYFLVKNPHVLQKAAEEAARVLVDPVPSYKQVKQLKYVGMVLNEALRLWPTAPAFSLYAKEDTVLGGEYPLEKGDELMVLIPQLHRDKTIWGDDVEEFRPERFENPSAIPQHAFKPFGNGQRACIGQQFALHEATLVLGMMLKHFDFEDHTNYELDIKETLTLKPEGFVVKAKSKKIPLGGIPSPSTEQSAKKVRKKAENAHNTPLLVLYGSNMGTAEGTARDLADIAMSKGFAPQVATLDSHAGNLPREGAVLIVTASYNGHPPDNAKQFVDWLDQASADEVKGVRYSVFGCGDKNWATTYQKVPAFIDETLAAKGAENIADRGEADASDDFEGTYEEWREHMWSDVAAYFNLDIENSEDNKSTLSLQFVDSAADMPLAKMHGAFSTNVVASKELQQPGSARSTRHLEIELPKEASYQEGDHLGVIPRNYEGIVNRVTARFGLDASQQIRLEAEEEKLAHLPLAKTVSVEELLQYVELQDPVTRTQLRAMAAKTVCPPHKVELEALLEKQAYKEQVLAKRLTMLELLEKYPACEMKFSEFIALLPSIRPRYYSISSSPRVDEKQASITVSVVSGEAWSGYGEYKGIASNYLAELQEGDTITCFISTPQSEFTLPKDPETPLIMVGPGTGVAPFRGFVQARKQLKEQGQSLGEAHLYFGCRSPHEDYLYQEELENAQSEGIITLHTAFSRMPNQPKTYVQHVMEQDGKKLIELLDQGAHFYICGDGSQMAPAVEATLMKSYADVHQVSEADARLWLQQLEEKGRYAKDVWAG
It counts as biochemical, Bacillus megaterium. Conditions: 50 μM αNF. As for the experimental part: (§1) Reaction mixtures consists of 50 pmol P450, 100 mM potassium phosphate buffer (pH 7.4), a NADPH-generating system, and a substrate (100 μM of simvastatin or lovastatin) in the presence of αNF (2 to 50 μM).
(§2) Products were analyzed by HPLC, as described above. In the case of human CYP3A4 activity assay, a control experiment of 50 pmol P450, 100 pmol NADPH-P450 reductase (CPR), 100 pmol cytocrhome b5, and 45 μM DLPC was used instead of 50 pmol CYP102A1.

The next series deals with T2, CYP102A1 mutant #17 (Priestia megaterium, UniProt P14779, E144G/E268V/E65G/F82I/F88V/L189Q/R48L).
T2 construct: made in house; host or cells: Escherichia coli DH5αF′-IQ (soluble cytosolic fraction)
T2 sequence (P14779 2-1049 R48L/E65G/F82I/F88V/E144G/L189Q/E268V): as the sequence (P14779 2-1049 R48L/F82I/F88V/E144G/L189Q/E268V) above, with E64G counted along it
It counts as biochemical, Bacillus megaterium. As to conditions: 50 μM αNF. As for the experimental part:
as §1, §2

A short description of series [2]: Total turnover numbers of 6′β-OH product formation, lovastatin. It counts as biochemical. Conditions: total 1.0 mM statin, 37° C., 4 hours. As for the experimental part: In order to measure the total turnover numbers (TTNs; mol product/mol catalyst) of mutant CYP102A1, total 1.0 mM statin was used. The reaction was initiated by the addition of the NADPH-generating system in the presence of 500 μM substrate and incubated at 37° C. for 4 hours. After 2 hours of incubation, the 500 μM substrate was added to the reaction mixture. […]

The nature of series [3]: Kinetic parameters of 6′β-hydroxylation of simvastatin. It counts as biochemical. As to conditions: 2 to 200 μM statin. The method, then:
(§3) The 6′β-hydroxylation rates of simvastatin (A) and lovastatin (B) were measured in reaction mixtures consistingof 50 pmol CYP102A1 in 0.25 ml of 100 mM potassium phosphate buffer (pH 7.4) along with a specified amount of substrate (2 to 200 μM of statins)
(§4) It was examined whether CYP102A1 and mutants thereof can oxidize simvastatin and lovastatin. Typical steady-state reactions for the oxidation of simvastatin and lovastatin included 50 pmol CYP102A1 in 0.25 ml of 100 mM potassium phosphate buffer (pH 7.4) along with a specified amount of substrate. To determine the kinetic parameters of several CYP102A1 mutants, 2 to 200 μM of statins were used. An aliquot of a NADPH-generating system was used to initiate reactions (final concentrations: 10 mM glucose 6-phosphate, 0.5 mM NADP+, and 1 IU yeast […]). A stock solution of statins (20 mM) was prepared in DMSO and diluted into the enzyme reactions with a final organic solvent concentration of <1% (v/v).
(§5) The kinetic parameters (Km and kcat) were determined using nonlinear regression analysis with GraphPad PRISM software (GraphPad, San Diego, Calif.). […]

Series [4] is described as follows: Total turnover numbers of 6′β-OH product formation, simvastatin. It counts as biochemical. Conditions: total 1.0 mM statin, 37° C., 4 hours. The method, then:
In order to measure the total turnover numbers (TTNs; mol product/mol catalyst) of mutant CYP102A1, total 1.0 mM statin was used. The reaction was initiated by the addition of the NADPH-generating system in the presence of 500 μM substrate and incubated at 37° C. for 4 hours. After 2 hours of incubation, the 500 μM substrate was added to the reaction mixture. The formation rate of simvastatin metabolites was determined by HPLC chromatograms.

Series [5] can be described thus: Kinetic parameters of 6′β-hydroxylation of lovastatin. It counts as biochemical. Conditions: 2 to 200 μM statin. The method, then:
as §3, §4, §5

Series [6] in a line: Oxidation of lovastatin by CYP102A1 wild type/mutants and human CYP3A4, product formation rate (turnover number). It counts as biochemical. Conditions: 100 μM lovastatin; mean±SD of triplicate; N.D. = less than 0.001. The method, then:
as §4
(§6) In the case of human CYP3A4 activity assay, a control experiment of 50 pmol P450, 100 pmol NADPH-P450 reductase (CPR), 100 pmol cytocrhome b5, and 45 μM L-α-dilauroyl-sn-glycero-3-phosphocholine (DLPC) was used instead of 50 pmol CYP102A1. After the solution was incubated for 30 minutes at 37° C., the reaction was terminated with 2-fold of ice-cold dichloromethane.
(§7) After centrifugation of the reaction mixture, the supernatant was carefully removed and the solvent was evaporated under N2 gas as described in Vickers et al., 1990. The products were analyzed by HPLC using a Gemini C18 column (4.6 mm×150 mm, 5 μm, Phenomenex, Torrance, Calif.) with a mobile phase of acetonitrile/water (70/30, v/v) containing 2.5 mM formic acid. Eluates were detected by UV at 238 nm.
(§8) First, the ability of wild-type and a set of P450 BM3 mutants to oxidize simvastatin and lovastatin was measured at a fixed substrate concentration (100 μM). While simvastatin and lovastatin are known to produce at least four and three metabolites, respectively, CYP102A1 mutants produced only two metabolites, one major (6β-OH statin) and one minor (6′-exomethylene statin) metabolites. The metabolites were analyzed by HPLC and compared to those of human CYP3A4 (FIGS. 1 and 2). Since there is no need to comprise a separate step of the 6′β-OH statin and 6′-exomethylene statin from other products, the use of wild-type and mutant CYP102A1 is beneficial.
(§9) Assays were performed using 100 μM simvastatin or lovastatin. Values are the mean±SD of triplicate determinations.

Series [7] in a line: Oxidation of simvastatin by CYP102A1 wild type/mutants and human CYP3A4, product formation rate (turnover number). It counts as biochemical. As to conditions: 100 μM simvastatin; mean±SD of triplicate; N.D. = less than 0.001. As for the experimental part:
as §4, §6, §7, §8, §9

Chain of triple CYP102A1 mutant of R47L/F87V/L188Q (P14779 2-1049 R48L/F88V/L189Q): as the sequence (P14779 2-1049 R48L/F82I/F88V/E144G/L189Q/E268V) above, with I81F, G143E, V267E counted along it

With `O=c1cc(-c2ccccc2)oc2c1ccc1ccccc12` [αNF, 7,8-benzoflavone], in series [1], the “Effect on metabolism of acetaminophen and 3,4-methylenedioxymethylamphetamine” value was “did not have a significant effect”. For the same molecule, the “Inhibition of 6′β-hydroxylation activity of lovastatin” value on CYP102A1 mutant #16 (100 μM lovastatin) is listed as 48%; on CYP102A1 mutant #17 (100 μM lovastatin) it was 76%. For the same molecule, the “Inhibition of 6′β-hydroxylation activity of simvastatin” value worked out at 44% on CYP102A1 mutant #16 (100 μM simvastatin) and 77% at CYP102A1 mutant #17 (100 μM simvastatin).

For the molecule “Human CYP3A4: human cytochrome P450 3A4, reconstituted with NADPH-P450 reductase, cytochrome b5 and DLPC”, the “Total turnover number of 6′β-OH product formation, lovastatin” value (“Total turnover number … lovastatin” for short) in series [2] came out at 44 ± 6 nmol product/nmol P450. Besides, in series [3], the Km was determined as 130 µM; the “kcat, 6′β-hydroxylation of simvastatin” value is 0.11 s⁻¹ and 0.11 ± 0.015 s⁻¹. In addition, the “Total turnover number of 6′β-OH product formation, simvastatin” value (“Total turnover number … simvastatin” for short) in [4] turned out to be 35 ± 5 nmol product/nmol P450. Moreover, in series [5], the Michaelis-Menten constant (Km) is 54 ± 15 µM; the “kcat, 6′β-hydroxylation of lovastatin” value was 0.07 s⁻¹ and 0.07 ± 0.0083 s⁻¹. Moreover, in series [6], the “Lovastatin 6β′-OH product formation rate” value is listed as 6.5 ± 0.3 nmol product/min/nmol P450 and the “Lovastatin 6′-Exomethylene product formation rate” value was 0.43 ± 0.01 nmol product/min/nmol P450. Also, in series [7], the “Simvastatin 6β′-OH product formation rate” value was 3.0 ± 0.1 nmol product/min/nmol P450 and the “Simvastatin 6′-Exomethylene product formation rate” value was 0.22 ± 0.01 nmol product/min/nmol P450.

B1: BM3 WT: wild-type bacterial cytochrome P450 BM3 (CYP102A1), Seq ID No. 16 (protein, listed as Bacillus megaterium)
chain: TIKEMPQPKTFGELKNLPLLNTDKPVQALMKIADELGEIFKFEAPGRVTRYLSSQRLIKEACDESRFDKNLSQALKFVRDFAGDGLFTSWTHEKNWKKAHNILLPSFSQQAMKGYHAMMVDIAVQLVQKWERLNADEHIEVPEDMTRLTLDTIGLCGFNYRFNSFYRDQPHPFITSMVRALDEAMNKLQRANPDDPAYDENKRQFQEDIKVMNDLVDKIIADRKASGEQSDDLLTHMLNGKDPETGEPLDDENIRYQIITFLIAGHETTSGLLSFALYFLVKNPHVLQKAAEEAARVLVDPVPSYKQVKQLKYVGMVLNEALRLWPTAPAFSLYAKEDTVLGGEYPLEKGDELMVLIPQLHRDKTIWGDDVEEFRPERFENPSAIPQHAFKPFGNGQRACIGQQFALHEATLVLGMMLKHFDFEDHTNYELDIKETLTLKPEGFVVKAKSKKIPLGGIPSPSTEQSAKKVRKKAENAHNTPLLVLYGSNMGTAEGTARDLADIAMSKGFAPQVATLDSHAGNLPREGAVLIVTASYNGHPPDNAKQFVDWLDQASADEVKGVRYSVFGCGDKNWATTYQKVPAFIDETLAAKGAENIADRGEADASDDFEGTYEEWREHMWSDVAAYFNLDIENSEDNKSTLSLQFVDSAADMPLAKMHGAFSTNVVASKELQQPGSARSTRHLEIELPKEASYQEGDHLGVIPRNYEGIVNRVTARFGLDASQQIRLEAEEEKLAHLPLAKTVSVEELLQYVELQDPVTRTQLRAMAAKTVCPPHKVELEALLEKQAYKEQVLAKRLTMLELLEKYPACEMKFSEFIALLPSIRPRYYSISSSPRVDEKQASITVSVVSGEAWSGYGEYKGIASNYLAELQEGDTITCFISTPQSEFTLPKDPETPLIMVGPGTGVAPFRGFVQARKQLKEQGQSLGEAHLYFGCRSPHEDYLYQEELENAQSEGIITLHTAFSRMPNQPKTYVQHVMEQDGKKLIELLDQGAHFYICGDGSQMAPAVEATLMKSYADVHQVSEADARLWLQQLEEKGRYAKDVWAG
As to B1, the “Total turnover number … lovastatin” value in series [2] came to 1.9 ± 0.6 nmol product/nmol P450. The “Total turnover number … lovastatin” value in [2] (listed as wild-type CYP102A1) came out at 1.9 nmol product/nmol P450. Further, the “Total turnover number … simvastatin” value in series [4] is 0.77 ± 0.04 nmol product/nmol P450. Further, the “Total turnover number … simvastatin” value in [4] (listed as wild-type CYP102A1) amounted to 0.77 nmol product/nmol P450. Further, in series [6], the “Lovastatin 6β′-OH product formation rate” value is recorded as “N.D. (not detectable(the rate of product formation was less than 0.001 nmol product/min/nmol P450))” and the “Lovastatin 6′-Exomethylene product formation rate” value is reported as “N.D. (not detectable(the rate of product formation was less than 0.001 nmol product/min/nmol P450))”. Further, in series [7], the “Simvastatin 6β′-OH product formation rate” value was 0.0049 ± 0.0017 nmol product/min/nmol P450 and the “Simvastatin 6′-Exomethylene product formation rate” value is reported as “N.D. (not detectable(the rate of product formation was less than 0.001 nmol product/min/nmol P450))”.
